Holding throughout (conditions): 20 nM; 72 h
In data set [1] the test system is MCF10A. As to the kind of experiment: 5+ nucleoli phenotype percent effect (relative to siNT 0% and siKIF11 100%); higher = more cells with five or more nucleoli. As to the method: (§1)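 After 72 h, cells were fixed and stained with Hoechst and anti-fibrillarin, and nucleoli per nucleus were counted with CellProfiler. Values are plate-adjusted percent effect for the one-nucleolus and 5+ nucleoli phenotypes, normalised to siNT (0%) and to the positive controls siNOL11 or siKIF11 (100%), as the mean of biological triplicates. Percent viability is the nuclei count relative to siNT.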

Data set [2] has as its system MCF10A. Nature of the data set: percent viability (nuclei count relative to siNT); higher = more viable cells. How it is done:
as §1

Data set [3] concerns MCF10A. Nature of the data set: one-nucleolus phenotype percent effect (relative to siNT 0% and siNOL11 100%); higher = more cells with one nucleolus (ribosome biogenesis inhibition). How it is done: as §1

Consider “UGCAAAAGUAAUUGCAGUUUUUG [hsa-miR-548x-5p]”, for which the “5+ nucleoli phenotype percent effect” value in the data set on MCF10A [1] was -24.2%. Also, in the data set on MCF10A [2], the percent viability turned out to be 63%. Moreover, the “one-nucleolus phenotype percent effect” value in the data set on MCF10A [3] was -9.86%.

Take CCACUGCCUAUGCCCCACAG [hsa-miR-6890-3p]: in the data set on MCF10A [1], the “5+ nucleoli phenotype percent effect” value is -13.4%. Also, the percent viability in the data set with MCF10A [2] was found to be 62.1%. For the same sequence, the “one-nucleolus phenotype percent effect” value in the data set on MCF10A [3] is -16.6%.

In the case of AAUAGCUCAGAAUGUCAGUUCUG [hsa-miR-7705], the “5+ nucleoli phenotype percent effect” value in the data set with MCF10A [1] was -21.4%. In the data set on MCF10A [2], the percent viability came out at 71.2%. For the same sequence, the “one-nucleolus phenotype percent effect” value with MCF10A [3] came out at 2.1%.

For the sequence CCAUGGAUCUCCAGGUGGGU [hsa-miR-490-5p], the “5+ nucleoli phenotype percent effect” value in the data set on MCF10A [1] is 16.2%. In the data set on MCF10A [2], the percent viability was 63.5%. For the same sequence, the “one-nucleolus phenotype percent effect” value in the data set with MCF10A [3] worked out at 0.865%.

Turning to “UGGUCAGAGGCAGCAGGAAAUGA [hsa-miR-6801-5p]”, the “5+ nucleoli phenotype percent effect” value with MCF10A [1] came to 27.3%. Further, the percent viability in the data set on MCF10A [2] is 54.5%. The “one-nucleolus phenotype percent effect” value in the data set with MCF10A [3] is -5.6%.

Turning to CACAGCAAGUGUAGACAGGCA [hsa-miR-3120-3p], the “5+ nucleoli phenotype percent effect” value in the data set with MCF10A [1] was 22.9%. The percent viability with MCF10A [2] amounted to 51.8%. Also, the “one-nucleolus phenotype percent effect” value in the data set on MCF10A [3] is -20.3%.

In the case of “CUUCUGCCUGCAUUCUACUCCCAG [hsa-miR-6738-3p]”, in the data set on MCF10A [1], the “5+ nucleoli phenotype percent effect” value is -13.9%. In addition, the percent viability with MCF10A [2] turned out to be 51.1%. The “one-nucleolus phenotype percent effect” value in the data set with MCF10A [3] was 12.5%.

With “UUACAGUUGUUCAACCAGUUACU [hsa-miR-582-5p]”, the “5+ nucleoli phenotype percent effect” value in the data set with MCF10A [1] was 12.8%. The percent viability in the data set on MCF10A [2] was determined as 165%. In the data set on MCF10A [3], the “one-nucleolus phenotype percent effect” value is -29.2%.

Regarding “AAGCUUUUUGCUCGAAUUAUGU [hsa-miR-208b-5p]”, the “5+ nucleoli phenotype percent effect” value in the data set on MCF10A [1] is -1.23%. In addition, the percent viability with MCF10A [2] came to 108%. Also, the “one-nucleolus phenotype percent effect” value in the data set with MCF10A [3] is -24.2%.

For UUGCAUAUGUAGGAUGUCCCAU [hsa-miR-448], the “5+ nucleoli phenotype percent effect” value with MCF10A [1] was found to be 34%. In addition, in the data set on MCF10A [2], the percent viability turned out to be 75.6%. For the same sequence, the “one-nucleolus phenotype percent effect” value in the data set on MCF10A [3] is -2.74%.

On to UGAUGGAGCUGGGAAUACUCUG [hsa-miR-8082], for which, in the data set with MCF10A [1], the “5+ nucleoli phenotype percent effect” value is -14.2%. For the same sequence, in the data set on MCF10A [2], the percent viability is 22.3%. Further, the “one-nucleolus phenotype percent effect” value with MCF10A [3] amounted to 21.8%.

For “UUUAACAUGGGGGUACCUGCUG [hsa-miR-302c-5p]”, in the data set on MCF10A [1], the “5+ nucleoli phenotype percent effect” value was 22.3%. Moreover, the percent viability in the data set on MCF10A [2] is 121%. The “one-nucleolus phenotype percent effect” value in the data set with MCF10A [3] is -8.1%.

As to “AUUUCCCUGCCAUUCCCUUGGC [hsa-miR-4446-5p]”, in the data set with MCF10A [1], the “5+ nucleoli phenotype percent effect” value was -36%. Further, the percent viability in the data set with MCF10A [2] amounted to 18.4%. Moreover, the “one-nucleolus phenotype percent effect” value in the data set on MCF10A [3] was determined as 28.2%.

Consider “AGUGGGAGGACAGGAGGCAGGU [hsa-miR-6778-5p]”, for which, in the data set with MCF10A [1], the “5+ nucleoli phenotype percent effect” value is -9.05%. Besides, the percent viability with MCF10A [2] is 26.7%. For the same sequence, the “one-nucleolus phenotype percent effect” value in the data set with MCF10A [3] is -2.52%.

As to AAUCACUAACCACACGGCCAGG [hsa-miR-34c-3p], in the data set with MCF10A [1], the “5+ nucleoli phenotype percent effect” value was found to be 13.7%. Also, in the data set on MCF10A [2], the percent viability is 70.3%. Further, the “one-nucleolus phenotype percent effect” value in the data set on MCF10A [3] is -3.51%.

Consider CUGGGGUUCUGAGACAGACAGU [hsa-miR-3170], for which the “5+ nucleoli phenotype percent effect” value with MCF10A [1] is -46.2%. Besides, the percent viability in the data set with MCF10A [2] turned out to be 9.55%. In addition, in the data set on MCF10A [3], the “one-nucleolus phenotype percent effect” value came to 40.9%.

For “UCAGAACAAAUGCCGGUUCCCAGA [hsa-miR-589-3p]”, the “5+ nucleoli phenotype percent effect” value in the data set with MCF10A [1] worked out at 5.52%. Besides, in the data set with MCF10A [2], the percent viability is 115%. The “one-nucleolus phenotype percent effect” value with MCF10A [3] was -20.8%.

Turning to GACUAUAGAACUUUCCCCCUCA [hsa-miR-625-3p], in the data set with MCF10A [1], the “5+ nucleoli phenotype percent effect” value was found to be 19.1%. Besides, the percent viability in the data set with MCF10A [2] stood at 104%. In addition, the “one-nucleolus phenotype percent effect” value in the data set with MCF10A [3] was -5.42%.

Consider “UCACCUGAGCUCCCGUGCCUG [hsa-miR-3622b-3p]”, for which, in the data set on MCF10A [1], the “5+ nucleoli phenotype percent effect” value is 29.9%. In the data set on MCF10A [2], the percent viability came to 107%. Besides, the “one-nucleolus phenotype percent effect” value in the data set on MCF10A [3] was -20.9%.

For the sequence AGCAUGACAGAGGAGAGGUGG [hsa-miR-6076], the “5+ nucleoli phenotype percent effect” value in the data set on MCF10A [1] was -17.6%. In the data set on MCF10A [2], the percent viability amounted to 33.8%. Besides, the “one-nucleolus phenotype percent effect” value in the data set with MCF10A [3] was 7.38%.

For the sequence “GGGUGGGGAUUUGUUGCAUUAC [hsa-miR-92a-2-5p]”, the “5+ nucleoli phenotype percent effect” value with MCF10A [1] was -28.2%. Besides, the percent viability in the data set on MCF10A [2] is 42.2%. For the same sequence, in the data set with MCF10A [3], the “one-nucleolus phenotype percent effect” value turned out to be 28.3%.

As for AUAUGUAUAUGUGACUGCUACU [hsa-miR-3924], in the data set with MCF10A [1], the “5+ nucleoli phenotype percent effect” value was -20.9%. Besides, the percent viability in the data set on MCF10A [2] stood at 32%. In the data set with MCF10A [3], the “one-nucleolus phenotype percent effect” value was -20%.

Regarding UACCCAGAGCAUGCAGUGUGAA [hsa-miR-1912], in the data set with MCF10A [1], the “5+ nucleoli phenotype percent effect” value is -35.1%. For the same sequence, the percent viability with MCF10A [2] came to 29.7%. The “one-nucleolus phenotype percent effect” value in the data set on MCF10A [3] was found to be 39.9%.

CUCCCCGGCCUCUGCCCCCAG [hsa-miR-6763-3p]: the “5+ nucleoli phenotype percent effect” value in the data set on MCF10A [1] is 39.1%. The percent viability in the data set on MCF10A [2] is 96.4%. In the data set on MCF10A [3], the “one-nucleolus phenotype percent effect” value was -28.1%.

As for “ACCACUGACCGUUGACUGUACC [hsa-miR-181a-2-3p]”, in the data set with MCF10A [1], the “5+ nucleoli phenotype percent effect” value worked out at 12.6%. Besides, the percent viability in the data set with MCF10A [2] is 120%. The “one-nucleolus phenotype percent effect” value in the data set with MCF10A [3] is -14.1%.

With CAAUUUAGUGUGUGUGAUAUUU [hsa-miR-32-3p], the “5+ nucleoli phenotype percent effect” value with MCF10A [1] is 35.1%. The percent viability in the data set on MCF10A [2] turned out to be 80.6%. The “one-nucleolus phenotype percent effect” value in the data set on MCF10A [3] was -22.3%.

In the case of AACUCUAGCCUGAGCAACAG [hsa-miR-5684], the “5+ nucleoli phenotype percent effect” value in the data set with MCF10A [1] is -2.91%. Moreover, the percent viability with MCF10A [2] turned out to be 40.5%. For the same sequence, in the data set with MCF10A [3], the “one-nucleolus phenotype percent effect” value turned out to be 2.62%.

With “CAUCUCUAAGGAACUCCCCCAA [hsa-miR-3675-3p]”, the “5+ nucleoli phenotype percent effect” value with MCF10A [1] was 8.48%. For the same sequence, the percent viability with MCF10A [2] was 62%. Further, in the data set with MCF10A [3], the “one-nucleolus phenotype percent effect” value turned out to be 10.4%.

Regarding “UCAAUAGGAAAGAGGUGGGACCU [hsa-miR-6826-5p]”, the “5+ nucleoli phenotype percent effect” value with MCF10A [1] is -20.8%. Besides, in the data set with MCF10A [2], the percent viability turned out to be 33.3%. Further, the “one-nucleolus phenotype percent effect” value with MCF10A [3] was 26.5%.

Consider AUCACAUUGCCAGGGAUUUCC [hsa-miR-23a-3p], for which the “5+ nucleoli phenotype percent effect” value in the data set with MCF10A [1] is -6.74%. Further, in the data set with MCF10A [2], the percent viability was 126%. In the data set with MCF10A [3], the “one-nucleolus phenotype percent effect” value was -9.26%.

On to AUGUAUGUGUGCAUGUGCAUG [hsa-miR-297], for which the “5+ nucleoli phenotype percent effect” value in the data set with MCF10A [1] was 34.4%. Besides, in the data set with MCF10A [2], the percent viability was 116%. In addition, in the data set with MCF10A [3], the “one-nucleolus phenotype percent effect” value was -26.3%.

Regarding “ACUUAAACGUGGAUGUACUUGCU [hsa-miR-302a-5p]”, the “5+ nucleoli phenotype percent effect” value in the data set on MCF10A [1] was found to be 65.8%. In addition, the percent viability in the data set with MCF10A [2] came to 128%. Moreover, the “one-nucleolus phenotype percent effect” value in the data set on MCF10A [3] is -19%.

As to CUCAGUAGCCAGUGUAGAUCCU [hsa-miR-222-5p], in the data set with MCF10A [1], the “5+ nucleoli phenotype percent effect” value was -14.7%. In addition, in the data set on MCF10A [2], the percent viability turned out to be 57.4%. In addition, the “one-nucleolus phenotype percent effect” value in the data set with MCF10A [3] turned out to be 14%.

CAAUCACUAACUCCACUGCCAU [hsa-miR-34b-3p]: the “5+ nucleoli phenotype percent effect” value in the data set with MCF10A [1] amounted to 11%. The percent viability in the data set with MCF10A [2] was determined as 50.1%. Also, the “one-nucleolus phenotype percent effect” value in the data set on MCF10A [3] was -6.72%.

Consider UUGCCAUGUCUAAGAAGAA [hsa-miR-4659b-5p], for which the “5+ nucleoli phenotype percent effect” value with MCF10A [1] is -38.1%. In addition, the percent viability in the data set on MCF10A [2] amounted to 42%. In addition, the “one-nucleolus phenotype percent effect” value with MCF10A [3] amounted to 29.7%.

For “AGCGUGGGAUGUCCAUGAAGUCAG [hsa-miR-6853-5p]”, in the data set on MCF10A [1], the “5+ nucleoli phenotype percent effect” value came out at 90.6%. In addition, in the data set on MCF10A [2], the percent viability came out at 71.7%. Also, the “one-nucleolus phenotype percent effect” value in the data set with MCF10A [3] is -26.6%.

Source of the values: the supplement of paper PMC10899765.
